From US20240116985A1 (published 2024)
Starred links: 1 amine or outer side, 2 acyl side, 3 side chain; linkers in the order of their positions; H or OH if unused. Positions of bridges follow the written chain, without caps; N, C: chain ends. Non-standard residues stand in square brackets, D forms with d. Primed or numbered codes have the meaning given here. *: point of attachment. PyrS2(3) = (S)-3-amino-1-((pent-4-en-1-yloxy)carbonyl)pyrrolidine-3-carboxylic acid, stapling residue, C=CCCCOC(=O)N1CC[C@@](N[*:1])(C(=O)[*:2])C1; PyrS2″ = (S)-3-amino-1-((pent-4-en-1-yloxy)carbonyl)pyrrolidine-3-carboxylic acid (stapling residue), C=CCCCOC(=O)N1CC[C@@](N[*:1])(C(=O)[*:2])C1; B5(23) = 2-amino-2-(pent-4-en-1-yl)hept-6-enoic acid (2,2-bis(4-pentenyl)glycine), stitching residue, C=CCCCC(CCCC=C)(N[*:1])C(=O)[*:2]; B5(4) = 2,2-bis(4-pentenyl)glycine = 2-amino-2-(pent-4-en-1-yl)hept-6-enoic acid (stitching residue), C=CCCCC(CCCC=C)(N[*:1])C(=O)[*:2]; PyrS″ = (S)-1-((allyloxy)carbonyl)-3-aminopyrrolidine-3-carboxylic acid (stapling residue), C=CCOC(=O)N1CC[C@@](N[*:1])(C(=O)[*:2])C1; PyrS2 = (S)-3-amino-1-((pent-4-en-1-yloxy)carbonyl)pyrrolidine-3-carboxylic acid, C=CCCCOC(=O)N1CC[C@@](N[*:1])(C(=O)[*:2])C1; PyrS1 = (S)-3-amino-1-((but-3-en-1-yloxy)carbonyl)pyrrolidine-3-carboxylic acid, C=CCCOC(=O)N1CC[C@@](N[*:1])(C(=O)[*:2])C1; PyrS = (S)-1-((allyloxy)carbonyl)-3-aminopyrrolidine-3-carboxylic acid, C=CCOC(=O)N1CC[C@@](N[*:1])(C(=O)[*:2])C1; B5(19) = 2-amino-2-(pent-4-en-1-yl)hept-6-enoic acid (bis(4-pentenyl)glycine), C=CCCCC(CCCC=C)(N[*:1])C(=O)[*:2]; HypEs5 = (2R,4S)-4-(pent-4-enoyloxy)pyrrolidine-2-carboxylic acid, C=CCCC(=O)O[C@H]1C[C@H](C(=O)[*:2])N([*:1])C1; (Et)GAbu = (S)-2-amino-4-((carboxymethyl)(ethyl)amino)butanoic acid, CCN(CC[C@H](N[*:1])C(=O)[*:2])CC(=O)[*:3]; GA = (S)-2-amino-3-((carboxymethyl)amino)propanoic acid, O=C([C@H](CNCC(=O)[*:3])N[*:1])[*:2]; Phe(4-tetrazol-5-yl) = N[C@@H](Cc1ccc(-c2nnn[nH]2)cc1)C(=O)O; Phe(2-Cl) = N[C@@H](Cc1ccccc1Cl)C(=O)O; Bta = N[C@@H](Cc1csc2ccccc12)C(=O)O; αAllylPro = C=CC[C@@]1(C(=O)O)CCCN1; tBuAla = CC(C)(C)C[C@H](N)C(=O)O; 3Thi = N[C@@H](Cc1ccsc1)C(=O)O; Cha = N[C@@H](CC1CCCCC1)C(=O)O; Pfb = not defined here; Aib = CC(C)(N)C(=O)O; Ms = CS(=O)(=O)*

T1: B-cat-Halo (UniProt P35222 1-781)
T1 sequence (looked up): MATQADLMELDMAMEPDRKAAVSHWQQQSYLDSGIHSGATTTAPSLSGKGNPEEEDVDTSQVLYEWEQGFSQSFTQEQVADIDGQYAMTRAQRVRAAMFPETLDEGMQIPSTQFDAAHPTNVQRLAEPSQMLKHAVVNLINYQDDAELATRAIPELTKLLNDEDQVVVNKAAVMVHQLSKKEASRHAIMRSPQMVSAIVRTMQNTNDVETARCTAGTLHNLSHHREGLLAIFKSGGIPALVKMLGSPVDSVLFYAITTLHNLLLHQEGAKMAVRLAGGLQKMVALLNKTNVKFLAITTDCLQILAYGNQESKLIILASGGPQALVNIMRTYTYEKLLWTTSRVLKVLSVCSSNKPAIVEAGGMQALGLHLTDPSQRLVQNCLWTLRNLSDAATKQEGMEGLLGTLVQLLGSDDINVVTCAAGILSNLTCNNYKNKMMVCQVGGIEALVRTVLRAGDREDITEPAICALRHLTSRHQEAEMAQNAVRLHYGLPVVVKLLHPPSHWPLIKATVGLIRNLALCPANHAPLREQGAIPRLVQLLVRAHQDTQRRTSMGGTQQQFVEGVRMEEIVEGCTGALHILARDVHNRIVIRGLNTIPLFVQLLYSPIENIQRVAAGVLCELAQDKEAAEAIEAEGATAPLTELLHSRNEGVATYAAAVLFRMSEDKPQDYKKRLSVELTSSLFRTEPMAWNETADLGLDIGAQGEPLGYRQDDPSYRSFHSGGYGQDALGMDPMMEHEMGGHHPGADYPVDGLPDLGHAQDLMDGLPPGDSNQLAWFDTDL

T2: B-cat-Halo (beta-catenin HaloTag construct expressed in HEK293 cells) (UniProt P35222 1-781)
T2 sequence (looked up): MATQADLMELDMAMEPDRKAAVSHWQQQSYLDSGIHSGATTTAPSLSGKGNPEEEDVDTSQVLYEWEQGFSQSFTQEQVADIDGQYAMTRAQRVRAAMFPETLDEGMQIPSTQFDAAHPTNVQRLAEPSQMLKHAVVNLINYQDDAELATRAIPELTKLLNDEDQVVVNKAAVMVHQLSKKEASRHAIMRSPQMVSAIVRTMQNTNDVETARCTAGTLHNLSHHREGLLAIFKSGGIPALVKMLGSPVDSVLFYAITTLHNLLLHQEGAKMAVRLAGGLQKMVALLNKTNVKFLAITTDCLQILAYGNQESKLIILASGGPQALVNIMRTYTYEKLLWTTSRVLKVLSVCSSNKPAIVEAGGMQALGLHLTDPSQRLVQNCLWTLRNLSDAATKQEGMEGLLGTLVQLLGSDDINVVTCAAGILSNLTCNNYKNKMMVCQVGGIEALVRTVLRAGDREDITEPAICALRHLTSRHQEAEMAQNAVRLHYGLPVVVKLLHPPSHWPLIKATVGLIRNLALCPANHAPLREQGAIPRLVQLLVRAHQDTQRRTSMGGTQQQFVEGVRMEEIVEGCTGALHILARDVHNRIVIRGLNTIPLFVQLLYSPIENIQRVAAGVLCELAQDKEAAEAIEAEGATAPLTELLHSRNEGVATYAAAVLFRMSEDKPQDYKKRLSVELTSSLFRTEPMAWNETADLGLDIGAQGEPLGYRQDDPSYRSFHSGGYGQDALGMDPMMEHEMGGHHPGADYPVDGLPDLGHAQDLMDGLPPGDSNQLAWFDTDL

T3: B-cat-Halo (UniProt P35222 1-781)
T3 sequence (looked up): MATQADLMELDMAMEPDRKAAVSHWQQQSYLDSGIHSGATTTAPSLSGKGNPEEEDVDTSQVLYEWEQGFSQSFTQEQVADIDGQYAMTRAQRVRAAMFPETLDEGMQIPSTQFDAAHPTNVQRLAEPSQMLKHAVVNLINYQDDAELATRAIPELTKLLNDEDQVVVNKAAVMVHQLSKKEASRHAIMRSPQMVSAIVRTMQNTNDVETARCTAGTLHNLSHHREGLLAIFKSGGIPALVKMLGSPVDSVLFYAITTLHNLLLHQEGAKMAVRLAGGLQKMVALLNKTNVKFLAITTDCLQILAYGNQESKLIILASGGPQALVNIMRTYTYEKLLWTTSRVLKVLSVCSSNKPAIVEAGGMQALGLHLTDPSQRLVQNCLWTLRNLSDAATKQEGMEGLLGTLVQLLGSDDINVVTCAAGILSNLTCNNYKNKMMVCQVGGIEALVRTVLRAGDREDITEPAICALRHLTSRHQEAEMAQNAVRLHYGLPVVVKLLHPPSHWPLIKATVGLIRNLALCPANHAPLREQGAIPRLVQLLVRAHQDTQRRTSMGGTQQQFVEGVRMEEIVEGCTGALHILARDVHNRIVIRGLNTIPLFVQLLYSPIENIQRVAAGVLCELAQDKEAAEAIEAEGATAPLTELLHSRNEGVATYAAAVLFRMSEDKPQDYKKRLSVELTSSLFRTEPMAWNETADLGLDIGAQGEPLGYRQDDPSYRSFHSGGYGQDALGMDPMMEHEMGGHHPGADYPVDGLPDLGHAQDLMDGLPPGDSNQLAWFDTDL


How the values were obtained:
Test in all cases: cell-based or functional assay
B-cat-Halo [1] = target: T1, B-cat-Halo
[2] = target: T2, B-cat-Halo (beta-catenin HaloTag …)
B-cat-Halo [3] = target: T3, B-cat-Halo; remark: listed apart in the source

| Binder | NanoBRET Abs IC50 (B-cat-Halo [1]) [µM] | NanoBRET Abs IC50 (B-cat-Halo [3]) [µM] | also measured |
| --- | --- | --- | --- |
| Ac-[αAllylPro]D[tBuAla][B5(23)]NNAAFL[PyrS2][3Thi][Bta]Q-NH2 (staple 1-4, 4-11) [I-1557] | > 20 | – | – |
| Ac-[αAllylPro]D[tBuAla][B5(19)]DDAAFL[PyrS1][3Thi][Bta]Q-NH2 (staple 1-4, 4-11; also: staple olefins reduced to CH2-CH2) [I-1822] | – | – | NanoBRET Abs IC50 [2]: > 20 µM |
| Ac-[αAllylPro]D[tBuAla][B5(4)]DTAAFT[PyrS2″][3Thi][Bta]S-NH2 (staple 1-4, 4-11) [I-1170] | – | 13.5 | – |
| Ac-[αAllylPro]D[Cha][B5(4)]DTAAFT[PyrS2″][Phe(2-Cl)][Bta]Q-NH2 (staple 1-4, 4-11) [I-1175] | – | 27.3 | – |
| Ac-[αAllylPro]D[tBuAla][B5(4)]D[(Et)GAbu]AAFL[PyrS2″][3Thi][Bta]Q-NH2 (staple 1-4, 4-11) [I-1835] | – | – | NanoBRET Abs IC50 [2]: 31.9 µM |
| Ac-[αAllylPro]D[tBuAla][B5(4)]DTAAFL[PyrS2″][3Thi][Bta]Q-NH2 (staple 1-4, 4-11) [I-1167] | – | 11.7 | – |
| Ac-[αAllylPro]D[tBuAla][B5(19)]DDAAFL[PyrS][3Thi][Bta]Q-NH2 (staple 1-4, 4-11) [I-1818] | – | – | NanoBRET Abs IC50 [2]: > 20 µM |
| Ac-[αAllylPro]D[tBuAla][B5(23)]D[GA](Pfb)AAFN[PyrS2][Phe(2-Cl)][Bta]Q-NH2 (staple 1-4, 4-11; reading uncertain; also: printed as Ac-PL3-Asp-Npg-B5-Asp-[Pfb]GA-Ala-Ala-Phe-Asn-PyrS2-2C1F-BztA-Gln-NH2) [I-1571] | 11.7 | – | – |
| Ac-[αAllylPro]D[tBuAla][B5(4)]DDAAFL[PyrS″][3Thi][Bta]Q-NH2 (staple 1-4, 4-11; also: staple -CH=CH- reduced to -CH2-CH2- in both staples) [I-1824] | – | – | NanoBRET Abs IC50 [2]: > 20 µM |
| Ac-[αAllylPro]D[tBuAla][B5(4)]DTAAFT[PyrS2″][Phe(2-Cl)][Bta]Q-NH2 (staple 1-4, 4-11) [I-1168] | – | 31.4 | – |
| Ac-[αAllylPro]D[Cha][B5(4)]DTAAFL[PyrS2″][3Thi][Bta]Q-NH2 (staple 1-4, 4-11) [I-1174] | – | 32.6 | – |
| Ac-[αAllylPro]D[tBuAla][B5(4)]DD[Aib]AFL[PyrS2″][3Thi][Bta]Q-NH2 (staple 1-4, 4-11) [I-1177] | – | 4.3 | – |

More lines, main results first:

| NanoBRET Abs IC50 (B-cat-Halo [1]) [µM] | NanoBRET Abs IC50 (B-cat-Halo [3]) [µM] | Binder | also measured |
| --- | --- | --- | --- |
| > 20 | – | Ac-[αAllylPro]D[tBuAla][B5(23)]D[Phe(4-tetrazol-5-yl)]AAFN[PyrS2(3)][3Thi][Bta]Q-NH2 (staple 1-4, 4-11) [I-1579] | – |
| – | 14.6 | Ac-[αAllylPro]D[tBuAla][B5(4)]DTAAFT[PyrS2″][3Thi][Bta]Q-NH2 (staple 1-4, 4-11) [I-1166] | – |
| > 20 | – | Ac-[HypEs5]D[tBuAla][B5(23)]DDAAFN[PyrS2][3Thi][Bta]Q-NH2 (staple 1-4, 4-11) [I-1573] | – |
| > 20 | – | Ms-[HypEs5]D[tBuAla][B5(23)]DDAAFN[PyrS2][3Thi][Bta]Q-NH2 (staple 1-4, 4-11; not fully specified; printed as MeSO2-HypEs5-Asp-Npg-B5-Asp-Asp-Ala-Ala-Phe-Asn-PyrS2-3Thi-BztA-Gln-NH2) [I-1574] | – |
| > 20 | – | Ac-[αAllylPro]D[tBuAla][B5(23)]NTAAFN[PyrS2][3Thi][Bta]Q-NH2 (staple 1-4, 4-11; also: earlier-eluting HPLC staple isomer) [I-1564] | – |
